How the values were obtained:
synthetic human hepcidin = target: T1, synthetic human hepcidin (Homo sapiens, UniProt P81172); assay: Iron-responsive beta-lactamase assay in 293/Fpn/BLA cells; assay type: cell-based; settings: 50 ng/mL synthetic human hepcidin, 2.5 ug/mL ferric citrate, read-out: EC50, decreased intracellular concentration of iron
T1 construct: made in house; host or cells: chemical synthesis (Fmoc solid phase), oxidatively folded
T1 sequence (P81172 60-84 limits assumed): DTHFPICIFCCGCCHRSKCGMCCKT
Procedure: The effect of anti-human hepcidin antibodies on this hepcidin-mediated iron sequestration was evaluated in vitro. […] These 293/Fpn/BLA cells, taken from a 70-80% confluent culture, were plated at 2.8×10^5 cells/mL in DMEM (Invitrogen Cat#11965) 5% FBS (Invitrogen Cat#10099-141) PSQ (Invitrogen Cat#10378-016), 90 uL/well (25,000 cells/well) in BioCoat Poly-D Lysine coated plates (Becton-Dickinson Cat#35-6640) and incubated at 37C with 5% CO2. At the end of the same day, a solution of assay medium (DMEM 5% FBS PSQ) with 100 ug/mL doxycycline was made, 10 uL/well of it added to the plate, and the plate incubated overnight or for at least 20 hours. […] Mixtures were added at 100 uL/well and incubated overnight at 37C, 5% CO2 in a cell culture incubator. Plates were then removed from the incubator and equilibrated to room temperature for 10 minutes before adding 20 uL/well of the prepared Invitrogen GeneBlazer CCF4 A/M development reagent (Invitrogen Kit# K1085) and incubating for 90 minutes in the dark. Development reagent was also added to 16 wells of a control assay plate without cells containing 100 uL assay medium (DMEM 5% FBS PSQ) and incubated for the same time. Blue & Green fluorescence signals were then read on an Envision Multilabel Reader (Perkin-Elmer Inc.) by exciting at 409 nm and reading emissions at 447 nm (blue) and 520 nm (green).

[1] = target: T2, mature human hepcidin (SEQ ID NO: 9) (Homo sapiens, UniProt P81172); assay: Epitope specificity: antibody binding to immobilized hepcidin surface after pre-complex with hepcidin variants (BIAcore); settings: interpretation of Table 6
T2 construct: made in house; host or cells: recombinant
Procedure: (§1) The epitope specificity of anti-human hepcidin antibodies was evaluated by assessing ability of the antibodies to bind to mature human hepcidin (SEQ ID NO: 9) after pre-complex formation with different hepcidin variants.
(§2) Recombinant hepcidin was immobilized on a CM5 chip according to manufacturer's instructions at a flow rate 10 μL/min of running buffer (DPBS: Dulbecco's Phosphate Buffer Saline1X, GIBCO 14190, with 0.005% BIAcore surfactant P-20). The carboxylated matrix of the sensor chip was first activated with a 100 μL injection of 1:1 mixture of EDC (75 mg/mL N-ethyl-N-(dimethylamine-propyl)carbodiimide in water, from Biacore) and NHS (11.5 mg/mL N-hydroxysuccinimide in water, from Biacore). 180 μL of rhHepc (˜20 μg/ml in 10 mM Na-acetate pH4.0) was injected to immobilize onto the sensor chip at 30 μL/min. The excess reactive groups of the sensor chip were deactivated with an injection of 100 μL of ethanolamine (1.0M, from Biacore).
(§3) Forms of hepcidin used for the pre-complex were: correctly folded hepcidin as a positive control, the C1-C8, C3-C6 hepcidin variant (see Example 9), hepcidin 20 (N-terminally truncated, see Example 9) and linear hepcidin (Example 9). 1 nM solutions of antibody (2.41, 2.7, 43, and R9) were preincubated with 10 nM of each antigen at room temperature for several hours before run through the immobilized hepcidin surface. The binding signal obtained was proportional to the concentration of free antibody in solution at equilibrium.
(§4) Some antibodies require the five amino acids at the N-terminus of the molecule (e.g. Ab43 and to a lesser extent, R9).

[2] = test system: mature human hepcidin (SEQ ID NO: 9); assay: as above
Procedure: as §1, §2, §3, §4

[3] = target: T3, mature human hepcidin (SEQ ID NO: 9) (Homo sapiens, UniProt P81172); assay: as above; settings: interpretation of Table 6; remark: listed apart in the source
T3 construct: made in house; host or cells: recombinant
T3 sequence (P81172 60-84): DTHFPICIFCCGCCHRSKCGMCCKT
Procedure: as §1, §2, §3, §4

rcyno hepcidin = assay: BIAcore solution equilibrium binding analysis on immobilized antibody; parameters: species or system cyno
rcyno hepcidin, sequence (as listed by the source): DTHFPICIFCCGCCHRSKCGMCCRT
Procedure: The following example describes KinExA and BIAcore binding analysis for various antibodies to recombinant cyno hepcidin (rcyno).
B) BIAcore Solution Equilibrium Binding Analysis for mAb R9 and Ab43 Binding to rcynoHepc.
Antibody surface immobilization: antibodies R9 and Ab43 were immobilized on a CM5 chip. The immobilization was performed at a flow rate 10 uL/min of running buffer (DPBS: Dulbecco's Phosphate Buffer Saline1X, GIBCO 14190, with 0.005% BIAcore surfactant P-20) according to manufacturer's instructions. The carboxylated matrix of the sensor chip was first activated with a 100 ul injection of 1:1 mixture of EDC (75 mg/mL N-ethyl-N-(dimethylamine-propyl)carbodiimide in water, from BIAcore) and NHS (11.5 mg/mL N-hydroxysuccinimide in water, from BIAcore). 180 ul of antibodies (−20 ug/ml in 10 mM Na-acetate pH4.0) was injected to immobilize onto the sensor chip at 30 uL/min. […]
BIAcore analysis: Fixed concentrations of rcynoHepc were incubated with various concentrations of mAb R9 and Ab43 at room temperature for several hours before run through the immobilized antibody surfaces. […] The equilibrium dissociation constant (KD) was calculated from nonlinear regression analysis of the competition curves using a one-curve one-site homogeneous binding model (KinEx™ software, Sapidyne Instruments Inc., Boise Id.).

B1: Antibody Ab43: murine anti-human hepcidin monoclonal antibody generated by viral immunization; CDRs SEQ ID NOs: 16-21 (antibody, V domains shown)
VH: QIQLVQSGPELKKPGETVKISCKASGYTFTTYGMSWVKQAPGKGLKWMGWINTYSGVPTYADDFKGRFAFSLETSASTAYLQINNLKNEDTATYFCASLWYYGRAFDYWGQGTTLTVSS
VL: NIVLTQSPASLAVSLGQRATISCRASESVDSYGNSFMHWYQQKPGQPPKLLIYLASNLESGVPARFSGSGSRTDFTLTIDPVEADDAATYYCQQNNEDRTFGGGTKLEIK
In the case of B1, the EC50 (synthetic human hepcidin) is reported as 13.8 nM, the “Binding to Solution Epitopes, Hepc20” value [1] is reported as “− (100% antibody binding to the hepcidin surface and therefore no inhibition by hepcidin in solution)” and the “Binding to Hepcidin Surface, C1-C8 C3-C6” value ([2]; 1 nM antibody preincubated with 10 nM C1-C8, C3-C6 hepcidin variant) is reported as 25%. The “Binding to Solution Epitopes, Linear Hepcidin” value ([2]; interpretation of Table 6) was “− (100% antibody binding to the hepcidin surface and therefore no inhibition by hepcidin in solution)”, the “Binding to Solution Epitopes, Folded Hepcidin” value [3] was “++++ (0% antibody binding to the hepcidin surface and therefore 100% inhibition by hepcidin in solution)” and the “binding affinity to rcyno hepcidin” value (rcyno hepcidin) was “significant binding affinity”.

Source: patent US20130018176A1, “METHODS OF PRODUCING HYBRIDOMAS AND MONOCLONAL ANTIBODIES AND ANTIBODIES PRODUCED THEREBY” (AMGEN INC., priority 2007, published 2013)
